From US10227388B2, “Peptides and combination of peptides for use in immunotherapy against non-small cell lung cancer and other cancers” (immatics biotechnologies GmbH, priority 2015, dated 2019)

Target: HLA-A*02:01 (Homo sapiens, UniProt P04439, D140Y/D185E/D98H/E176V/E277Q/G131W/G231S/I119V/I121R/I166T/I218V/L300P/L318F/N151K/N90K/P208A/P217A/Q86G/Q94H/R138H/R169H/T345S)
Assay: MHC binding assay (UV-ligand exchange, ELISA, peptide exchange yield)
Settings: binding of HLA-class I restricted peptides to HLA-A*02:01
Procedure, shortened: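 Peptide–HLA-A*02:01 complexes made by UV-ligand exchange of a UV-cleavable peptide for the test peptide. Exchange yield measured by ELISA: 100-fold diluted monomers captured on streptavidin, 1 h at 37° C., detected with HRP anti-β2m and TMB, absorbance at 450 nm.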

Row | Substance | Peptide exchange (MHC class I binding score, peptide exchange yield)
1 | 198 (KTINKVPTV; listed as Homo sapiens) [compound 198] | ″+++″ (≥50% = +++)
2 | 385 (SLLEQGLVEA; listed as Homo sapiens) [compound 385] | ″++″ (≥20% = ++)
3 | 590 (SLIEKLWQT; listed as Homo sapiens) [compound 590] | ″++″ (≥20% = ++)
4 | 502 (RLLAQVPGL; listed as Homo sapiens) [compound 502] | ″+++″ (≥50% = +++)
5 | 332 (YLISELEAA; listed as Homo sapiens) [compound 332] | ″+++″ (≥50% = +++)
6 | 611 (YLLDDGTLVV; listed as Homo sapiens) [compound 611] | ″++++″ (≥75% = ++++)
7 | 67 (TLLAEALVTV; listed as Homo sapiens) [compound 67] | ″+++″ (≥50% = +++)
8 | 459 (ALITEVVRL; listed as Homo sapiens) [compound 459] | ″++″ (≥20% = ++)
9 | 589 (KLYPQLPAEI; listed as Homo sapiens) [compound 589] | ″+++″ (≥50% = +++)
10 | 182 (MLLEAPGIFL; listed as Homo sapiens) [compound 182] | ″+++″ (≥50% = +++)
11 | 306 (ALVNVQIPL; listed as Homo sapiens) [compound 306] | ″+++″ (≥50% = +++)
12 | 430 (HLYSSIEHLTT; listed as Homo sapiens) [compound 430] | ″+++″ (≥50% = +++)
13 | 49 (YLPAVFEEV; listed as Homo sapiens) [compound 49] | ″+++″ (≥50% = +++)
14 | 551 (KLYESLLPFA; listed as Homo sapiens) [compound 551] | ″+++″ (≥50% = +++)
15 | 134 (YLQELIFSV; listed as Homo sapiens) [compound 134] | ″+++″ (≥50% = +++)
16 | 599 (YLLNDASLISV; listed as Homo sapiens) [compound 599] | ″+++″ (≥50% = +++)
17 | 516 (AVGPASILKEV; listed as Homo sapiens) [compound 516] | ″++″ (≥20% = ++)
18 | 74 (ALLDPEVLSIFV; listed as Homo sapiens) [compound 74] | ″+++″ (≥50% = +++)
19 | 89 (YILPTETIYV; listed as Homo sapiens) [compound 89] | ″++++″ (≥75% = ++++)
20 | 168 (KILDADIQL; listed as Homo sapiens) [compound 168] | ″++++″ (≥75% = ++++)
21 | 447 (QLVPALAKV; listed as Homo sapiens) [compound 447] | ″++″ (≥20% = ++)
22 | 615 (VLPPDTDPA; listed as Homo sapiens) [compound 615] | ″++″ (≥20% = ++)

Row | Substance | Peptide exchange (MHC class I binding score, peptide exchange yield)
23 | 119 (FLYIGDIVSL; listed as Homo sapiens) [compound 119] | ″++++″ (≥75% = ++++)
24 | 399 (YLFEPLYHV; listed as Homo sapiens) [compound 399] | ″+++″ (≥50% = +++)
25 | 174 (ALAQYLITA; listed as Homo sapiens) [compound 174] | ″+++″ (≥50% = +++)
26 | 19 (FMVDNEAIYDI; listed as Homo sapiens) [compound 19] | ″++++″ (≥75% = ++++)
27 | 138 (YQYPRAILSV; listed as Homo sapiens) [compound 138] | ″+++″ (≥50% = +++)
28 | 10 (FLATFPLAAV; listed as Homo sapiens) [compound 10] | ″++++″ (≥75% = ++++)
29 | 5 (HLTEVYPEL; listed as Homo sapiens) [compound 5] | ″+++″ (≥50% = +++)
30 | 231 (FLSPQQPPLLL; listed as Homo sapiens) [compound 231] | ″++″ (≥20% = ++)
31 | 35 (KINDTIYEV; listed as Homo sapiens) [compound 35] | ″+++″ (≥50% = +++)
32 | 125 (VQIHQVAQV; listed as Homo sapiens) [compound 125] | ″+++″ (≥50% = +++)
33 | 507 (KLIDDQDISISL; listed as Homo sapiens) [compound 507] | ″+++″ (≥50% = +++)
34 | 184 (YLMDINGKMWL; listed as Homo sapiens) [compound 184] | ″+++″ (≥50% = +++)
35 | 322 (TLMTSLPAL; listed as Homo sapiens) [compound 322] | ″+++″ (≥50% = +++)
36 | 346 (LLDSKVPSV; listed as Homo sapiens) [compound 346] | ″+++″ (≥50% = +++)
37 | 180 (FQIDPHSGLVTV; listed as Homo sapiens) [compound 180] | ″++″ (≥20% = ++)
38 | 585 (ALWDLAADKQTL; listed as Homo sapiens) [compound 585] | ″++++″ (≥75% = ++++)
39 | 298 (VMITKLVEV; listed as Homo sapiens) [compound 298] | ″+++″ (≥50% = +++)
40 | 601 (SAFPFPVTV; listed as Homo sapiens) [compound 601] | ″+++″ (≥50% = +++)
41 | 357 (SMHDLVLQV; listed as Homo sapiens) [compound 357] | ″+++″ (≥50% = +++)
42 | 545 (LLADLLHNV; listed as Homo sapiens) [compound 545] | ″+++″ (≥50% = +++)
43 | 92 (YLIPFTGIVGL; listed as Homo sapiens) [compound 92] | ″++″ (≥20% = ++)
44 | 529 (LLADELITV; listed as Homo sapiens) [compound 529] | ″+++″ (≥50% = +++)

Row | Substance | Peptide exchange (MHC class I binding score, peptide exchange yield)
45 | 448 (NLLETKLQL; listed as Homo sapiens) [compound 448] | ″+++″ (≥50% = +++)
46 | 128 (YLFDDPLSAV; listed as Homo sapiens) [compound 128] | ″++″ (≥20% = ++)
47 | 299 (YLLETSGNL; listed as Homo sapiens) [compound 299] | ″+++″ (≥50% = +++)
48 | 83 (ILAPTVMMI; listed as Homo sapiens) [compound 83] | ″+++″ (≥50% = +++)
49 | 388 (SLTIDGIRYV; listed as Homo sapiens) [compound 388] | ″+++″ (≥50% = +++)
50 | 450 (FMIDASVHPTL; listed as Homo sapiens) [compound 450] | ″+++″ (≥50% = +++)
51 | 412 (YLDDLNEGVYI; listed as Homo sapiens) [compound 412] | ″++″ (≥20% = ++)
52 | 559 (VTVPPGPSL; listed as Homo sapiens) [compound 559] | ″++″ (≥20% = ++)
53 | 208 (KISPVTFSV; listed as Homo sapiens) [compound 208] | ″+++″ (≥50% = +++)
54 | 334 (TLTKVLVAL; listed as Homo sapiens) [compound 334] | ″+++″ (≥50% = +++)
55 | 187 (RQISIRGIVGV; listed as Homo sapiens) [compound 187] | ″+++″ (≥50% = +++)
56 | 43 (VLSSLEINI; listed as Homo sapiens) [compound 43] | ″++″ (≥20% = ++)
57 | 379 (IMEGTLTRV; listed as Homo sapiens) [compound 379] | ″++″ (≥20% = ++)
58 | 255 (VLASYNLTV; listed as Homo sapiens) [compound 255] | ″+++″ (≥50% = +++)
59 | 157 (SLNDEVPEV; listed as Homo sapiens) [compound 157] | ″++″ (≥20% = ++)
60 | 351 (SLIPNLRNV; listed as Homo sapiens) [compound 351] | ″+++″ (≥50% = +++)
61 | 164 (ALLPQPKNLTV; listed as Homo sapiens) [compound 164] | ″+++″ (≥50% = +++)
62 | 171 (LLLPLQILL; listed as Homo sapiens) [compound 171] | ″+++″ (≥50% = +++)
63 | 123 (NLWDLTDASVV; listed as Homo sapiens) [compound 123] | ″+++″ (≥50% = +++)
64 | 145 (FLATSGTLAGI; listed as Homo sapiens) [compound 145] | ″++″ (≥20% = ++)
65 | 609 (ALWKQLLEL; listed as Homo sapiens) [compound 609] | ″+++″ (≥50% = +++)
66 | 478 (YLLHEKLNL; listed as Homo sapiens) [compound 478] | ″+++″ (≥50% = +++)
